Data: patent US20090257987A1, “Method of generating dopamine-secreting cells” (Ramot At Tel Aviv University Ltd., priority 2008, published 2009)

Tests used:
human MSCs [1] = experiment: Real-time quantitative PCR of Nurr1 and GAD67; format: cell-based; conditions: real-time PCR versus GAPDH
Experimental: Induction of differentiation: The differentiation protocol was composed of 2 steps. In step 1, cells were transferred to serum-free medium (DMEM) supplemented with 2 mM glutamine, 100 μg/ml streptomycin, 100 units/ml penicillin, 12.5 units/ml nystatin (Biological Industries), N2 supplement (Invitrogen, New Haven, Conn.) and 20 ng/ml fibroblast growth factor 2 and epidermal growth factor (both from R&D Systems, Minneapolis, Minn.) for 48-72 hours. […]
RNA isolation and cDNA synthesis: Total RNA was isolated by a commercial TriReagent (Sigma). The amount and quality of RNA was determined with the ND-1000 spectrophotometer (NanoDrop, Wilmington, Del.). […]
Real-time quantitative reverse transcription polymerase chain reaction (PCR): Real-time quantitative PCR of the desired genes was performed in an ABI Prism 7700 sequence detection system (Applied Biosystems, Foster City, Calif.) using Syber Green PCR Master Mix (Applied Biosystems) and the following primers: glyceraldehyde-3-phosphate dehydrogenase (GAPDH) sense CGACAGTCAGCCGCATCTT (SEQ ID NO: 1), GAPDH antisense […] […] For each gene, the specificity of the PCR product was assessed by verifying a single peak in the melting curve analysis. […] Quantitative calculations of the gene of interest versus GAPDH were done according to the ΔΔCT method, as instructed in the user bulletin of the ABI Prism 7700 sequence detection system (updated 10/2001).

human MSCs [2] = experiment: HPLC analysis of dopamine secretion; format: cell-based
Experimental: Induction of differentiation: The differentiation protocol was composed of 2 steps. In step 1, cells were transferred to serum-free medium (DMEM) supplemented with 2 mM glutamine, 100 μg/ml streptomycin, 100 units/ml penicillin, 12.5 units/ml nystatin (Biological Industries), N2 supplement (Invitrogen, New Haven, Conn.) and 20 ng/ml fibroblast growth factor 2 and epidermal growth factor (both from R&D Systems, Minneapolis, Minn.) for 48-72 hours. In step 2, the medium was changed to Basic induction medium containing Neurobasal, B27 (both from Invitrogen), in addition to 1 mM dibutyryl cyclic AMP (dbcAMP), 3-isobutyl-1-methyl-xanthine (IBMX), and 200 μM ascorbic acid (all from Sigma, St Louis, Mo.). The following factors were added to the Basic induction medium in different combinations: brain-derived neurotrophic factor (BDNF; 50 ng/ml), glial-derived neurotrophic factor (GDNF;10 ng/ml), neurturin (100 ng/ml), neurotrophin 3 (NT3; 50 ng/ml), and fibroblast growth factor 8 (FGF8; 100 ng/ml (all from Cytolab, Rehovot, Israel); transforming growth factor β3 (TGFβ3; 2 ng/ml), sonic hedgehog (Shh; 500 ng/ml, both from R&D); estrogen (0.1 μM, Sigma); and all-trans-retinoic acid (RA; 0.1 μM, Sigma). High performance liquid chromotography (HPLC): Reverse-phase HPLC coupled with an electrochemical detector (ECD) was used to measure dopamine levels. […]

B1: brain-derived neurotrophic factor (protein, UniProt P23560 19-247, looked up)
Neurotrophic factor BDNF …: APMKEANIRGQGGLAYPGVRTHGTLESVNGPKAGSRGLTSLADTFEHVIEELLDEDQKVRPNEENNKDADLYTSRVMLSSQVPLEPPLLFLLEEYKNYLDAANMSMRVRRHSDPARRGELSVCDSISEWVTAADKKTAVDMSGGTVTVLEKVPVSKGQLKQYFYETKCNPMGYTKEGCRGIDKRHWNSQCRTTQSYVRALTMDSKKRIGWRFIRIDTSCVCTLTIKRGR
notes: brain-derived neurotrophic factor (50 ng/ml) added to the Basic induction medium
For B1, the GAD67 expression (human MSCs [1]) was “down regulation”, the Nurr1 expression (human MSCs [1]; compared to untreated MSCs) was “significant upregulation” and the “dopamine secreted to the depolarization buffer (mean)” value (human MSCs [2]; 56 mM KCL in HBSS for 30 minutes) was 1127.86 pg/ml of dopamine per 10^6 cells. The “dopamine secreted to the conditioned media (mean)” value (human MSCs [2]; differentiation medium) was 673.69 pg/ml of dopamine per 10^6 cells.
